Test results published in the supplement of paper PMC9170038.

Test system: MS2 coat protein
Assay: apparent KD of MS2 coat protein; designed switch direction (-1 OFF switch, 1 ON switch): -1; higher = weaker reporter binding
Method in brief: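 The reported apparent KD is a per-design median over clusters, from curve fits of normalised cluster fluorescence. Protein titrations used SNAP-549-labelled MS2 coat protein, doubled from 0.7 or 1.5 nM to 3 µM, in Tris-HCl pH 7.5 buffer with KCl, MgCl2, BSA, DTT, tRNA and Tween-20, with no input, 200 uM small-molecule ligand, or an oligonucleotide input. The RNA switches were transcribed on Illumina chips by stalled E. coli RNA polymerase.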

[1] = Eterna round: R95, input ligand: FMN 200 uM
[2] = Eterna round: R95, input ligand: microRNA oligo, concentration not stated
[3] = Eterna round: R95, input ligand: none
[4] = input ligand: microRNA oligo, concentration not stated

Sequence: AAACCCUGAGGAUAUGCAUAACAACAAAGCCUCACGUGCCAACAUGAGGAUCACCCAUGUAGAAGGCAGGCCAA [Mod R3 Insanara 15 - Jieux - Exclusion 2] (Eterna round: R97, puzzle: Exclusion 2)
- apparent KD of MS2 coat protein (input ligand: FMN 200 uM): 20.7 nM
- apparent KD of MS2 coat protein (input ligand: none): 15.3 nM

Sequence: GAAAACGAAGAGGAUAUUUGAUAUCAUAGCUUCAAAGAAGGCUUCACAUGAGGAUCACCCAUGUGAUCUUCAAU [Mat - Exclusion 6 - JL Mod - D19] (Eterna round: R97, puzzle: Exclusion 6)
- apparent KD of MS2 coat protein (input ligand: FMN 200 uM): 116 nM
- apparent KD of MS2 coat protein (input ligand: none): 23.8 nM

Sequence: AAGUGGUGAGGAUAUAUAUACCAAUCUUCGAGGCACGACCAACAUGAGGAUCACCCAUGUAGAAGGCACCACAA [Eternabot (Original) Solution 39] (Eterna round: R97, puzzle: Exclusion 2)
- apparent KD of MS2 coat protein (input ligand: FMN 200 uM): 32.7 nM
- apparent KD of MS2 coat protein (input ligand: none): 14.9 nM

Sequence: AGUAGAUCUACGCUUGCGUGGAUCUGCAUUGCAAGUGUAACAUGAGGAUCACCCAUGUCCUCAUUUGCUCGUCUUAU [JL turnoff v2 99.02] (puzzle: Sensor v3, turn-off variant 2)
- apparent KD of MS2 coat protein [1]: 54.4 nM
- apparent KD of MS2 coat protein [2]: 277 nM
- apparent KD of MS2 coat protein [3]: 54.2 nM

Sequence: GUGUAGUCAGGAUAUACAGAGGAAGAUAAUACAAUAUAAGUACAUGAGGAUCACCCAUGUAGAAGGGACAGUGU [Excluse me!! 10 - Jieux - Exclusion 2] (puzzle: Exclusion 2)
- apparent KD of MS2 coat protein [2]: 25.7 nM

Sequence: CCUCCGCAUUAGGAUAUCGUCCCGGAAACGGGACGAGAAGGAAUGACAUGAGGAUCACCCAUGUUAACGUGAUG [Mod of Brourd 18 - Jieux - Exclusion 6] (Eterna round: R97, puzzle: Exclusion 6)
- apparent KD of MS2 coat protein (input ligand: FMN 200 uM): 304 nM
- apparent KD of MS2 coat protein (input ligand: none): 48.2 nM

Sequence: GGAUCGAGUGUGAGGAUAUGCAGGUCCUUGGAUCUGCAGAAGGCACAUGAGGAUCACCCAUGUGGAAACGGUCC [Mat - Exclusion 4 - JL Mod - D76] (puzzle: Brourd's mod of Exclusion 4)
- apparent KD of MS2 coat protein [2]: 58.9 nM

Sequence: AAUCCACAUGAGGAUCACCCAUGUCAGGAUAUCGCGCGCGCGUUUUCGGUCUUUCGCGCGAGAAGGGACGACUG (puzzle: Exclusion 1)
- apparent KD of MS2 coat protein [2]: 14.1 nM

Sequence: UUUUAACAUGAGGAUCACCCAUGUGAGGAUAUCGAAAUUUAUAUUAAUAUUAUUAUUACGAGAAGGCACAUUUU [JMF 42] (puzzle: Exclusion 1)
- apparent KD of MS2 coat protein [2]: 69.3 nM

Sequence: UAUAUAUAGUAAGGAUAUGUAAUUAUUUUAUAGACAGAAGGUACUGACAUGAGGAUCACCCAUGUUUUAGUGUGGGCAUGUAGA [JMF's solution 50] (Eterna round: R96, puzzle: Exclusion NG 1)
- apparent KD of MS2 coat protein [4]: 60.9 nM

Sequence: AACCUACAUGAGGAUCACCCAUGUGAGGAUAUAUUGUUAUGGAUGUUAUUUUGUAGUGGUAGAAGGCGCGUGAU [JR_Exc1_Sub024] (Eterna round: R97, puzzle: Exclusion 1)
- apparent KD of MS2 coat protein (input ligand: FMN 200 uM): 19 nM
- apparent KD of MS2 coat protein (input ligand: none): 15.9 nM

Sequence: UACAUGAGGAUCACCCAUGUUUUGUCGUGUAUGGUAUUUAUCUAGGAUAUCAUUGUAUUUAUUUAUGAGAAGGAGAAUAUUAAU [JMF's solution 96] (Eterna round: R96, puzzle: Exclusion NG 3)
- apparent KD of MS2 coat protein (input ligand: FMN 200 uM): 34.4 nM
- apparent KD of MS2 coat protein [4]: 24 nM
- apparent KD of MS2 coat protein (input ligand: none): 32.6 nM

Sequence: AGUAUUCGAGGAUAUACGUGCCAAUGAUCCAUGAGACUCCUACAUGAGGAUCACCCAUGUAGAAGGCGAAAACC [Eternabot (L1) Solution 99] (Eterna round: R97, puzzle: Exclusion 2)
- apparent KD of MS2 coat protein (input ligand: FMN 200 uM): 19.1 nM
- apparent KD of MS2 coat protein (input ligand: none): 15.9 nM

Sequence: GUACUGACAGGAUAUACAUGAGGAUCACCCAUGUGCCUUAAUGCUACAAAAGUAGCGAGUAGAAGGGUCUGUAC [Omei Ex3 Model Bachelor's Dilema v12] (Eterna round: R97, puzzle: Exclusion 3)
- apparent KD of MS2 coat protein (input ligand: FMN 200 uM): 119 nM
- apparent KD of MS2 coat protein (input ligand: none): 20.7 nM

Sequence: GAAGCACAUGAGGAUCACCCAUGUGAGGAUAUCCGUCUGGUCCGGCCGGGCCAGUACCGGAGAAGGCGCGUCGA [Excls1-Va] (puzzle: Exclusion 1)
- apparent KD of MS2 coat protein [2]: 27.6 nM

Sequence: ACCUCUACGCUUUCCAAGGGUAGACCUGGUGUUUGUCACACAUGAGGAUCACCCAUGUGCACUGUGCGAGUCGAACA [solution 38] (Eterna round: R96, puzzle: Sensor v2, turn-off variant 2)
- apparent KD of MS2 coat protein (input ligand: FMN 200 uM): 49.5 nM
- apparent KD of MS2 coat protein [4]: 40.2 nM
- apparent KD of MS2 coat protein (input ligand: none): 50.6 nM

Sequence: UUGUAAUGAUUAGGAUAUUAUUAAUAGAACUUUAUGAUAUACAUGAGGAUCACCCAUGUUACUUAUAAGAAGGAAUCGUAUUAU [JR_ExcNG2_Sub092] (Eterna round: R96, puzzle: Exclusion NG 2)
- apparent KD of MS2 coat protein [4]: 15.7 nM

Sequence: UCAUGUAUGUAGGAUAUCGAUGUCGAAAGACAUCGAGAAGGACGUACAUGAGGAUCACCCAUGUAACUUGCAUG [Exclusion 6 - B - 11:a] (puzzle: Exclusion 6)
- apparent KD of MS2 coat protein [1]: 12.9 nM
- apparent KD of MS2 coat protein [2]: 18.8 nM
- apparent KD of MS2 coat protein [3]: 12.9 nM

Sequence: CAUGAUCUUCGGAUCAUGUACAUGAGGAUCACCCAUGUUACGAGCAGAUCUUCAUACAAGCUUUUUGCUCGUCUUAU [Sensor v3 - Turn-off variant 1 - 34] (puzzle: Sensor v3, turn-off variant 1)
- apparent KD of MS2 coat protein [1]: 34.5 nM
- apparent KD of MS2 coat protein [2]: 64.9 nM
- apparent KD of MS2 coat protein [3]: 40.4 nM

Sequence: GGUUGGCGAGGAUAUACAUGAGGAUCACCCAUGUGGUCCUGUGGCUGAUCUAGCCUAUGUAGAAGGCGCAAAUC [salish99_ex3_r4_013] (Eterna round: R97, puzzle: Exclusion 3)
- apparent KD of MS2 coat protein (input ligand: FMN 200 uM): 311 nM
- apparent KD of MS2 coat protein (input ligand: none): 139 nM

Sequence: ACGCAUUGCCUUUGGUAGUGCGUAACAUGAGGAUCACCCAUGUAGGAUAUGGUAGGCUUUGCUUACCAGAAGGACAUAAUAAUU [JL ENG3 1.01] (Eterna round: R96, puzzle: Exclusion NG 3)
- apparent KD of MS2 coat protein (input ligand: FMN 200 uM): 54.1 nM
- apparent KD of MS2 coat protein [4]: 21.7 nM
- apparent KD of MS2 coat protein (input ligand: none): 26.1 nM

Sequence: AUCGUGCAGCAAAGCUGUACGAGUACAUGAGGAUCACCCAUGUAGGAUAUGGUACGCAAAGCGUGCUAGAAGGAUAUGUGUAGG [Mat - Exclusion NG 3 - Mod of JL - D84] (Eterna round: R96, puzzle: Exclusion NG 3)
- apparent KD of MS2 coat protein (input ligand: FMN 200 uM): 69.6 nM
- apparent KD of MS2 coat protein [4]: 44.6 nM
- apparent KD of MS2 coat protein (input ligand: none): 57.1 nM

Sequence: GUUAUCGCAGGAUAUUAAUACUUGUACAUGAGGAUCACCCAUGUUUAUUGGGAUUAAGAAUAAGAAGGGCGAUGAA [JR_Ex5_Sub003] (Eterna round: R97, puzzle: Exclusion 5)
- apparent KD of MS2 coat protein (input ligand: FMN 200 uM): 52.8 nM
- apparent KD of MS2 coat protein (input ligand: none): 27.8 nM

Sequence: UAUGUUGUUGUGAGGAUAUACUUUGUUUGGUCGUAGUAGAAGGCACAUGAGGAUCACCCAUGUAGAUUUUUGGU [JR_BME4_Sub009] (puzzle: Brourd's mod of Exclusion 4)
- apparent KD of MS2 coat protein [2]: 20 nM
